Common to all, as to experiment: SPR (BIAlite), receptor amine-coupled on CM4 chip, ligand injected, 25 C
One assay addresses T1, P75 receptor (UniProt P08138 29-250, limits assumed).
T1 construct: also called p75NTR; p75(NTR)
T1 sequence (looked up): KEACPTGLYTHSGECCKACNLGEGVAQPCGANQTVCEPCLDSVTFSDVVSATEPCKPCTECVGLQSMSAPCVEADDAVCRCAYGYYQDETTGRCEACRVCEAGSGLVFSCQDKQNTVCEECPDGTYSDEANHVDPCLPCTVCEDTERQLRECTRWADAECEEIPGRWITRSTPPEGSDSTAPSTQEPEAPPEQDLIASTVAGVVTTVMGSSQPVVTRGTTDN
Here is the method:
(§1) The TrkA, TrkB and TrkC receptors and p75^NTR were immobilized on a sensor chip, CM4, using an amine-coupling kit as follows: the chip was activated by 20 μl activation solution, N-hydroxysuccinimide, (NHS) and N-ethyl-N′-(3-[…])-carbodiimide (EDC), the protein was immobilized using 30 μl of a mixture of 4 μl (0.5 μg/ml) protein in 50 μl 10 mM sodium acetate buffer (pH 4.0); and the chip was blocked by 35 μl blocking solution (ethanolamine-HCl). The receptor surface was regenerated between ligand injections with 15 μl 2 mM NaCl or 10 mM glycine-HCl, pH 2.5. In the present experiments a flow rate of 5 μl/min was used.
(§2) The curve corresponding to the difference between binding to the Trk receptors or the […] receptor and a blank chip was used for analysis.

The target in another assay is T2, TrkB (UniProt Q16620 32-430, limits assumed).
T2 construct: also called NTRK2; TrkB receptor
T2 sequence (Q16620 32-430 limits assumed): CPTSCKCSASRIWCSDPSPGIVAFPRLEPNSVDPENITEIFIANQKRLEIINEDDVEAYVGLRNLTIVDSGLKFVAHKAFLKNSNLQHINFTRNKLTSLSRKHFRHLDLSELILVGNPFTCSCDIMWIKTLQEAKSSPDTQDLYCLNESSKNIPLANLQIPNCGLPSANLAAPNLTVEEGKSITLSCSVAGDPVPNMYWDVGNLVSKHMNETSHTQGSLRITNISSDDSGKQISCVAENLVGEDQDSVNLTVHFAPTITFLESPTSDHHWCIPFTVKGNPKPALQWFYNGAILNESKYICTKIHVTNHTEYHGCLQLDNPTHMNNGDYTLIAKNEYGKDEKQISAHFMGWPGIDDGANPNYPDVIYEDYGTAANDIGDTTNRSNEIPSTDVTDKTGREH
Here is the method:
as §1, §2

In another assay the target is T3, TrkA (UniProt P04629 34-413, limits assumed).
T3 construct: also called NTRK1; TrkA receptor
T3 sequence (P04629 34-413 limits assumed): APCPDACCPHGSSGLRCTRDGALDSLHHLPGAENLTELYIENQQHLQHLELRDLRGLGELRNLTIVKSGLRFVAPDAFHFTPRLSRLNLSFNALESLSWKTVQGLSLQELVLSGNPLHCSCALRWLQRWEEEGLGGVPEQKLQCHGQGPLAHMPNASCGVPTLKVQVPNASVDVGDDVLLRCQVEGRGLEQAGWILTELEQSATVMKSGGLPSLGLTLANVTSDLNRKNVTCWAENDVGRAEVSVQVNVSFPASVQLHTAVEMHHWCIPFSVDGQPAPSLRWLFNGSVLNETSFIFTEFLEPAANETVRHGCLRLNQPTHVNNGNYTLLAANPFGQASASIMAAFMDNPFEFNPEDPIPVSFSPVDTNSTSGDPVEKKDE
The protocol: as §1, §2

The next assay addresses T4, TrkC (UniProt Q16288 32-429, limits assumed).
T4 construct: also called NTRK3; TrkC receptor
The protocol:
as §1, §2

B1: NGF-C2 (peptide)
peptide: CVLSRKAVRRA
Consider B1, for which the Kd is 385 nM in the assay with P75 receptor, 883 nM in the assay with TrkB, 727 nM with TrkA and 658 nM in the assay with TrkC.

B2: BDNF-E (peptide)
peptide: RGIDKRHWNSQ
notes: also called BDNF derived peptide BDNF-E
As for B2, the Kd with P75 receptor worked out at 556 nM; in the assay with TrkB it was 173 nM; in the assay with TrkC it was 697 nM.

B3: BDNF-EE (peptide)
peptide: SYVRALTMDSKKRIGWR
notes: also called BDNF derived peptide BDNF-EE
For B3, the Kd with P75 receptor stood at 110 nM; in the assay with TrkB, 38.7 nM; with TrkC, 166 nM.

B4: NGF-EE (peptide)
peptide: TFVKALTMDGKQAAWR
notes: also called NGF derived peptide NGF-EE
For B4, the equilibrium dissociation constant (Kd) is 226 nM in the assay with P75 receptor, 10.3 nM with TrkB and 51.9 nM with TrkC.

B5: NGF-E (peptide)
peptide: RGIDSKHWNSY
notes: also called NGF derived peptide NGF-E
As to B5, the equilibrium dissociation constant (Kd) is 2600 nM in the assay with P75 receptor, 254 nM in the assay with TrkB and 1060 nM with TrkC.

B6: BDNF (ligand, UniProt P23560 129-247, looked up)
chain: HSDPARRGELSVCDSISEWVTAADKKTAVDMSGGTVTVLEKVPVSKGQLKQYFYETKCNPMGYTKEGCRGIDKRHWNSQCRTTQSYVRALTMDSKKRIGWRFIRIDTSCVCTLTIKRGR
notes: also called brain-derived neurotrophic factor
As to B6, the Kd is 0.0584 nM with P75 receptor and 1.18 nM with TrkB.

As usually defined, the Kd is the free concentration of one partner at which half of the binding sites on the other are occupied at equilibrium, for simple one-to-one binding.

The values are drawn from patent US20090074779A1 (COPENHAGEN UNIVERSITY, published 2009).
